Data from the DeepSol protein solubility set.

Experiment: soluble on expression in E. coli; label from the status in PepcDB or PDB records

Sequence | soluble on expression in E. coli
MAYKHILIAVDLSPESKVLVEKAVSMARPYNAKISLIHVDVNYSDLYTGLIDVNLGDMQKRISEETHHALTELSTNAGYPITETLSGSGDLGQVLVDAIKKYDMDLVVCGHHQDFWSKLMSSARQLINTVHVDMLIVPLRDEEE | not soluble
MAYKVYLKDLADVDDGSRCESSSILTQNQPTTIASSGFVMSNPNVKSPSLPSSATNWNSEYSVTEPTMSPADQILKDSVARKKRSMVDLTELNQLYGKGYKPPAPSARTPPTIYENLAINAPSSPSATDASSVPLTFIEKHHEFKKLVPSGTDGRFELFLKVADCFD | not soluble
MAYWLLKSEPQVYGIEDLEREGRAIWDGVRNYQARNYLMQMKEGDLCFFYHSGTTPPGIAGRCRVVRTLLPDPTQFDPESPYYDPKATPEKPRWYTVEVAFVEKWPLVPLAELKALFPPDHPLVKRGNRLSVMPVPPEVAEALIVRRGSR | soluble
MCFFLLCFLDSFRNRDTTQSDTDVIYPRDDPRASRSHQNFGFMDPPPRYEQIFKRGGGTPSVITTREAPSVTRSTGDGSLPPSYEQAALNARRESRPQLPQGTLREVPLTAIDMEHPAMSTPSSTVLDMESEITNITNHAQACVHRYDASHANEVTRTAVAVTTESPAPAQSTSNALPELEAPEGGPPGYDTISLHNETVSTR | not soluble
MCGGRGTRLDTKVEKPLFRIGGVPMVGRVVGALEDSAVERIIAATSPNAPETQSCLDVPCIETPGEGYVADLNAALNDDRLSQPVLTVAADLPLLDGEIVDRVLDEHNGGSLTVLVPASLKRALGVSDDTTFDNGGREVAPTGVNVVSDGPDDAWLTRDRRVAVNVNTLADARVAEQWLLEHHHHHH | not soluble
MCGRFVLKATPEEIADYLDLIGLEDFPARFNIAPTQPILVVMEGEQQERGSNLPNRRAVLVRWGFMPGWVKDPKDFPLLINARSETAIGKASFRAAMRHRRVLIPATGFYEWRRPPKEEGGKAQPYFIRPKNGGIVAFAGLMETWSSADGSEVDTGAILTTAANAAIGRIHDRMPVVIAPEDFSRWLDCKTQEPREVADLMRPVQGDFFEMIPVSDKVNKVANVGADLIDPVPESAPLAKVRPAKDDGQMSLFLEHHHHHH | not soluble
MCGRIAQKSAPEDYVEILWPNARLIFDDVAGPRYNIPPGTRPLTMHRLVDQAEALARLPWGYKPHGSSFFMINAKLETIERHGWPWKLMIGTGRILVPADGWYEWKALDSGPKPAKQPYYIHGDAPLLFAGLSAWRRGAELDEAHGFAIVTNDALGGMVDVHDRRPVALPPELAREWVDPATPVARAKEILRAGLPETAFSWYPVRQEVGSSKYQLPDAVDPLLEHHHHHH | soluble
MCKLAGPQHSEIGFPISTDNASWRGPNIEAGGKSAYNNVQVGE | not soluble
MCLNFREDNVMKKIMVIFGTRPEAIKMAPLVKEIDHNGNFEANIVITAQHRDMLDSVLSIFDIQADHDLNIMQDQQTLAGLTANALAKLDSIINEEQPDMILVHGDTTTTFVGSLAAFYHQIPVGHVEAGLRTHQKYSPFPEELNRVMVSNIAELNFAPTVIAAKNLLFENKDKERIFITGNTVIDALSTTVQNDFVSTIINKHKGKKVVLLTAHRRENIGEPMHQIFKAVRDLADEYKDVVFIYPMHRNPKVRAIAEKYLSGRNRIELIEPLDAIEFHNFTNQSYLVLTDSGGIQEEAPTFGKPVLVLRNHTERPEGVEAGTSRVIGTDYDNIVRNVKQLIEDDEAYQRMSQANNPYGDGQASRRICEAIEYYFGLRTDKPDEFVPLRHK | not soluble
MCMSVFKRLRDLTMSNVYSLIEKAEDPVKMTDQYLRDMQADVQEAEKSVAAQIALEKKFKILFEEQEALVKKREEQAHMAVQASNLDLARRALEEKQNAEQKMNEYKASYEQNKAAADNLRLKLEEMRKQLTELKNKRETLVARVNAAKAQKNINQAMSGFDSNSAKAGLSRMEEKALQLEAEAEASGEVYKKEKSLDDEFASLNKNSAVDDELARIMKQYEKMAGDPLEHHHHHH | not soluble
MCMSWSKVKYFFFDTPEEKEAAQYSYEKEQTDMKKQQDPPEQQDVTFPKAQPKQNVVSIETAKQSSKVVLLEPRTYSEAQGIADHLKGRRAVVINLQRMSTDQAVRIVDFLSGTVYAIGGDIQKIGPKTFMTPENVDIVGAISELFGEEEDTNIKRWLEHHHHHH | soluble
MCNDTATPQLEELVTTVANQLMTVDAATSAEVSQRVLAYLVEQLGVDVSFLRHNDRDRRATRLVAEWPPRLNIPDPDPLRLIYFADADPVFALCEHAKEPLVFRPEPATEDYQRLIEEARGVPVTSAAAVPLVSGEITTGLLGFIKFGDRKWLEHHHHHH | not soluble
MCPVENKWLKVGQKGAGPGARSSHAMTVVGNKVYCFGGELKPTIHIDNDLYVFDLETQEWSIAPATGEAPFPCFGVSMVTIGSTIYVYGGRDDKRRYNGLHSYDTETNEWKLLAPVEEGLPGRSYHSMAGDDRKVYVFGGVTAKGRVNTLHAYDVVDQKWVEYPAAGEACKGRGAPGLVVVEGRIWVLFGFDGNELGDIHCFDLASEQWKAVETTGDVPAARSVFPAVSYGKYIVIYGGEEEPHELMHMGAGKMSGEVYQLDTETLVWERIVCGNEEEKPSQRGWCAFTKAVKDGEEGLLVHGGNSPTNERLDDLVFWGFSHLNVN | soluble
MCSSETIVKLNVGGSVFETWKSTLTKQDGFFKTLVETNIPVKKDTSDCYFIDRSPKYFETVLNYMRSGVTVLPDSEKELQELKKEAEFYLLEQLVDLCEPINNQIRTYRSSHELLQIIASTKKPVVVINYITHNNDIIYIPEGFRFDEFVKKNSSVVEIYFQPMDNREPLPKDLRRHRGMKYYPEPVWSYRIYNSTHSGCVDLTAMDDLQKKIDSILNGE | not soluble
MCSTEKLSEADANLPYFHGALMNIDADQLLVNEGDFMVTMKKQLDINKLQLFLAVRLKKGIRRYEIKRTSKTAKIGGKTSQNIVKLINMLKADPIEIRGEKVVLKRAIPKGKFQLMHKDVIFQKKIGAGAYGTVYRGKLVKTDEVIAVKKLDPEGADEDGLAEMMKEARVMQLYDHPNIVKFHGFILDDLPYLLVLEYCNGGAVEDRLRDKGEKIKVPTRVKYTYMAACGMDYLHKKNCIHRDIASRNCLIHKGVVKMADFGMCRAQSVYKVDLKKPCNIRWLAPEVWDNGETRFNTDVYAFGIMMWEFFETPFKSPYVEMKAAQVKRKTRAGYRLPPPPSMPSRMVEIMSECWQVDAEKRPTAEELKEKLEEFKKKTENSITTSAPPTSVEKSKLSVSSEPTTKSVDPNKSRL | not soluble
MDAAVIVPAYNEAESLARCLAPFESQPVELVVVVGGDDGTEQVARDTPFVDTVVRCDEGGAGIARNRGAAAATAPILLFTDADTVVPEDWVRLHLRHYADDEVIGVGGPARPLEDSLKHRVLFKLLSDYWYRVSWPLGFVQQPGFNCSFRADAFKAAGGFNEDIPFMEDTELSLRMKDYGRIVYDADSCVATSARREADEGYVSLFAKYVRGYANHYILRREFDADYFLEHHHHHH | not soluble
MDAFKRNLEKLAELAIRVGLNLEKGQEVIATAPIEAVDFVRLLAEKAYREGASLFTVIYGDQELARKRLALAPEEGLDKAPAWLYEGMARAFREGAARLAVSGSDPKALEGLPPEKVGRAQKANARAYKPALEAITEFVTNWTIVPFAHPGWARAVFPGLPEEEAVRRLWEAIFQATRADQEDPIAAWEAHNRALHEKVAYLNARRFHALHFKGPGTDLVVGLAEGHLWQGGATATKGGRLCNPNLPTEEVFTAPHRERVEGVVRASRPLALGGTLVEGIFARFERGFAVEVRAEKGEEVLRRLLDTDEGARRLGEVALVPADNPIAKTGLVFFDTLFDENAASHIAFGQAYQENLEGRPSGEAFRKRGGNESLVHVDWMIGSEEMDVDGLYEDGTRTPLMRRGRWVV | soluble
MDAKQRIARRVAQELRDGDIVNLGIGLPTMVANYLPEGIHITLQSENGFLGLGPVTTAHPDLVNAGGQPCGVLPGAAMFDSAMSFALIRGGHIDACVLGGLQVDEEANLANWVVPGKMVPGMGGAMDLVTGSRKVIIAMEHCAKDGSAKILRRCTMPLTAQHAVHMLVTELAVFRFIDGKMWLTEIADGCDLATVRAKTEARFEVAADLNTQRGDL | soluble
MDAQSYMPVPPGVGMEENFFSLDDILLSHERLPCRTESAFPRLGFLEKSSDSRDIPEGTKMEMPLWLAKGLYERKRRVLSVELPKVYREGWRTVFGADPTVVDLYKMGPYYYGLGSQMLHFESPENPEIANTILQTFIGRFRRTMDSSQNAYNEDTSALVERLDYLERSLFKAGQSGLNNFQLWEKGRSSHLTASSLVINYRKRKMTDLQA | not soluble
MDATISVVCYKSKTLSNGEHPLMLRISKDGKKKYQSLGISVNPKFWDFQKNKPKPKCPNLEYLQKIILDKKLELQKKMLEIKSDQKEYSAATLIEANEKLQVAKNVDCFYKEIIAQCEINNKCGNRLVYLNSYNSLKRFTNGKLEIPFNTINVAWLEKYEKWLRSNGNKETTISLMFRTLRSTYNKAIKERCAHLSDYPFQEYKISKFDTSTQKRAIAKTDMLKFTETSQPIGQKKYVELSKDIFIFSYLCGGINFTDIANLTQENIVNGRLHYIRQKTGKLIKIGIPQEAMQIIKKYTDESNG | not soluble
MDDKEKNAEVAKAIKLPDLASYMQVVIKQLEIDKKWSAVHTYTYTLKSVTEFYGGKGTPVPIDEAFTSGRLKEYEEWMRLEGTRNKKTDKKRSDRKHGVPKGLSLNTISTYMRTLKAVYNRLADKKILPYNPKLFDNVYTKVESQTKRALDTKQMNTLLHTDIEKLPKEMQCALAYFLLMFLFRGMPFIDLAHLRKQDVKGKYIVYSRHKTGRQITVRIPKEAMKLIEKFKNMNYDSIYLFPILDKKNAAKEQSQKNGKIKKDKELYMNYLRVLRNFNLKLEKIATLLLPDVKLSSYTPRHTWATLAFHAGVNIGIICKALGHSSIKVTETYLKPFENEKVDIANDELIISVVAHNGEKEVA | not soluble
MDDQGGTRPDLLSLKPTAVPRLPLVLLARSRLVAKLDDTADTVLICAPAGYGKTLLLSQWLEDQAHKVAWLSPNQHNREALWPAMLQALRRSPAIPPGALRQFSGDEEDAVEVLGDLAQELASTGTSVRLVIDGVDGFSSDERERWIPALLNQSGPPIQLALVARDSTAVDAGPARLSGRIVELRSSDLAFSLEEINVLAAKTTTL | not soluble
MDDRTEYDVYTDGSYVNGQYAWAYAFVKDGKVHYEDADVGKNPAAATMRNVAGEIAAALYAVKKASQLGVKIRILHDYAGIAFWATGEWKAKNEFTQAYAKLMNQYRGIYSFEKVKAHSGNEFNDYVDMKAKSALGIRDLEHHHHHH | soluble
MDELFEEHLEIAKALFAQRLPYWCDVFLRPADQAFNAYLNARGQASTYLVLEGFDPVYVPRGCDLDAVRATARARARLREAGLGEDALPVLL | not soluble
MDEPVDVELVLAVDVSLSMSADELEIQRHGYAAALTHDNVLQAIADGAHGKIAVTYVEWAGTTWQRVIVPWTVIANRADAERVVAQLSAQPPNSARRTSISGALEFGSDLFAESGYEGTKRVIDISGDGPNNQGAPVNLTRDGVVRQGIVINGLPLMTRGGLSGAYDVNDLDRYYSDCVIGGPGAFMIPVNDWTQFPEAIRRKLVLELAGLEHHHHHH | soluble
MDESEPVRQIYDHKDLAEFLESSAFQDIWDFVERLNCSVRGLSGDALAGPRVPATSLVTAELAALKELAAEVELLPAETGRFGNRAFRTWFSQLQERTPRFTEELLVKSDQTKRYGPDLQAYFLGAFGDPMRIDYGTGHEASFLLFMFCLHRLHLFRAEDFPELVLSVFPAYLATTRYLQQRFTLEPAGSHGVWGLDDYVFLPFLFGSSQLIGKDTEVPPVAARDRELVLELAPKYLYFDTIRFILETKRGPFAEHSPTLYDISGLENWSRINAGLLRMYKAEVWSKLPVIQHIPFGILIPFRSAARTSTERLPAGS | not soluble
